Measurements as given in publication PMC12288907 (JCI Insight, 2025).
Numbering of substitutions follows the chain as printed.

B1: recombinant H7-235 IgG1 (rH7-235 IgG1) (antibody, V domains shown)
VH: QVQLVESGGGVVQPGESLRLSCAASGFAFRTYGMHWVRQAPGKGLEWVGVIWYDGSNKYYGDSVKGRFTISRDNSQNTLYLQMNSLRAEDTAVYYCARNGERWRVEDYYYGMDVWGQGTLVTVSS
VL: EIVMTQSPLSLPVTPGEPASISCRSSQSLLHSNAHNYLDWYLQKPGQSPQLLIYLGSNRASGVPDRFSGSGSGTDFTLKISRVEAEDVGIYYCMQALQTPITFGQGTRLEIK
notes: IgG1; also called rH7-235 mAb; mAb H7-235; copies: 2 + 2
B2: rH7-235 IgG1 (recombinant human monoclonal antibody H7-235) (antibody, V domains shown)
VH: B1 VH
VL: B1 VL
notes: also called mAb H7-235; source: Expi293F, transient transfection, purified (MabSelect Sure)
B3: rH7-235rev IgG1 (germline revertant form of rH7-235 IgG) (antibody, V domains shown)
VH: B1 VH with E16R, A28T, R30S, T31S, G49A, G61A, Q76K
VL: not shown

How the values were obtained:
Test in all cases: ELISA
Settings in all cases: both partners purified
[1] = molecular target: recombinant soluble trimeric H7 HA of A/Netherlands/219/2003 H7N7 (NL03 H7) (Influenza A virus …, UniProt Q6VMK1, strain)
[2] = molecular target: recombinant soluble trimeric H15 HA of A/shearwater/Western Australia/2576/1979 H15N9 (wtWA79 H15) (Influenza A virus A/wedge-tailed …, UniProt Q20ND8, strain)
[3] = molecular target: recombinant soluble trimeric H15 HA of A/shearwater/Western Australia/2576/1979 H15N9 (Influenza A virus A/wedge-tailed …, UniProt Q20ND8, strain)
[4] = molecular target: recombinant soluble trimeric H7 HA of A/Netherlands/219/2003 H7N7 (Influenza A virus …, UniProt Q6VMK1, strain)

Row | Binder | binding result [1] | binding result [2] | binding result [3] | binding result [4]
1 | B1 | binds | no binding | – | –
2 | B2 | – | – | no binding (tested: >10,000 ng/mL) | –
3 | B3 | – | – | no binding (tested: >10,000 ng/mL) | no binding (tested: >10,000 ng/mL)
